Assay results published in article PMC10397247.

Columns and labels:
Experiment in all cases: two-hybrid library CCmax;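 also: natural log of median RNA to DNA barcode read ratio; higher means stronger binding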
4H2948-AA = target: T1, 4H2948-AA
T1 chain: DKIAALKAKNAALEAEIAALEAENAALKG

4H2991-AA = target: T2, 4H2991-AA; conditions: mean of both orientations
T2 chain: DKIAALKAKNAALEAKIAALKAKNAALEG

4H3029-AA = target: T3, 4H3029-AA; conditions: mean of both orientations
T3 chain: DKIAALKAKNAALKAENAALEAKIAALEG

4H3066-AA = target: T4, 4H3066-AA; conditions: mean of both orientations
T4 chain: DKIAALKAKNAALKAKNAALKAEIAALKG

4H3102-AA = target: T5, 4H3102-AA; conditions: mean of both orientations
T5 chain: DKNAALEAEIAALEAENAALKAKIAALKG

4H3121-AA = target: T6, 4H3121-AA; conditions: mean of both orientations
T6 chain: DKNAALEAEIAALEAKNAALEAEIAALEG

4H3417-AA = target: T7, 4H3417-AA; conditions: mean of both orientations
T7 chain: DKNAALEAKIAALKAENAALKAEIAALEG

4H3446-AA = target: T8, 4H3446-AA; conditions: mean of both orientations
T8 chain: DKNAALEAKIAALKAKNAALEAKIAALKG

4H3591-AA = target: T9, 4H3591-AA; conditions: mean of both orientations
T9 chain: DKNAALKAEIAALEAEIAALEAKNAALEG

4H3628-AA = target: T10, 4H3628-AA; conditions: mean of both orientations
T10 chain: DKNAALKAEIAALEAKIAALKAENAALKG

4H3666-AA = target: T11, 4H3666-AA; conditions: mean of both orientations
T11 chain: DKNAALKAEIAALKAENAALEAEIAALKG

4H3709-AA = target: T12, 4H3709-AA; conditions: mean of both orientations
T12 chain: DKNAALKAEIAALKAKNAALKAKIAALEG

4H391-AA = target: T13, 4H391-AA
T13 chain: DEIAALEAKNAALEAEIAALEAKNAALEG

4H3920-AA = target: T14, 4H3920-AA; conditions: mean of both orientations
T14 chain: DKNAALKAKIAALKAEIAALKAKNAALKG

4H3939-AA = target: T15, 4H3939-AA; conditions: mean of both orientations
T15 chain: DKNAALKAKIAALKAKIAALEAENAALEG

4H428-AA = target: T16, 4H428-AA; conditions: mean of both orientations
T16 chain: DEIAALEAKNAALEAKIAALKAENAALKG

4H478-AA = target: T17, 4H478-AA; conditions: mean of both orientations
T17 chain: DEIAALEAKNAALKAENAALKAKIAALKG

4H497-AA = target: T18, 4H497-AA; conditions: mean of both orientations
T18 chain: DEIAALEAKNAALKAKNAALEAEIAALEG

4H656-AA = target: T19, 4H656-AA; conditions: mean of both orientations
T19 chain: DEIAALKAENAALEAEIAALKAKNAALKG

4H675-AA = target: T20, 4H675-AA; conditions: mean of both orientations
T20 chain: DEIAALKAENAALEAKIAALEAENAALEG

4H971-AA = target: T21, 4H971-AA; conditions: mean of both orientations
T21 chain: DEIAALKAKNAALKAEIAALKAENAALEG

- interaction score (4H2948-AA): -0.0114
- interaction score (4H2991-AA): -0.169
- interaction score (4H3029-AA): -1.4
- interaction score (4H3066-AA): -1.57
- interaction score (4H3102-AA): 0.56
- interaction score (4H3121-AA): -1.15
- interaction score (4H3417-AA): 0.478
- interaction score (4H3446-AA): -0.524
- interaction score (4H3591-AA): -1.3
- interaction score (4H3628-AA): -0.855
- interaction score (4H3666-AA): -1.69
- interaction score (4H3709-AA): -1.17
- interaction score (4H391-AA): -1.39
- interaction score (4H3920-AA): -1.35
- interaction score (4H3939-AA): -1.77
- interaction score (4H428-AA): 1.95
- interaction score (4H478-AA): -1.62
- interaction score (4H497-AA): -1.54
- interaction score (4H656-AA): 0.924
- interaction score (4H675-AA): -0.414
- interaction score (4H971-AA): -0.608
Binder: DKIAALKAKNAALEAEIAALEAENAALKG [4H2948-AA]
